According to paper PMC6445578:

Columns and labels:
[1] = molecular target: hERG F860A core channel (hERG ΔPAS F860A-citrine, S620T) (human) (UniProt Q12809); test: FRET or BRET
[2] = molecular target: hERG ΔPAS-citrine channel (hERG core channel), S620T (human) (UniProt Q12809); test: FRET or BRET

hERG PAS domain fused to cyan fluorescent protein (hERG PAS-CFP) (from UniProt Q12809 1-135) (domain or fragment)
Ratio A – Ratio A0 (proportional to FRET efficiency) [1]: 0.09 | Ratio A − Ratio A0 (proportional to FRET efficiency) [2]: 0.2
